Assay [1] deals with MDA-MB-435s cells. Description: Cell invasion assay (Transwell, Matrigel). The assay is classed as cell-based. The settings on record: antibody 25 μg/ml; in the presence of hOPN; 24 hours. The procedure:
The assay of cell invasion was carried out using the Transwell system (Corning) with the pore size of […]. The basement membrane of the upper chamber was coated with the artificial matrix gel (Matrigel). After being dried in a flame hood, the matrigel was hydrated with DMEM at 37° C. for 1 hour. MDA-MB-435s cells were detached using 0.2% EDTA and suspended in 0.25% BSA/DMEM at the concentration of 5×10^5 cells/ml. 100 μl of the obtained cell suspension as well as the following 25 μg/nil of antibodies were respectively added into the upper chamber of each well: 1A12 (murine anti-human OPN antibody), c1A12 (human-mouse chimeric antibody), h1A12 (humanized antibody), and 23C3 (irrelevant antibody control). To lower chamber, 0.25% of BSA/DMEM (with or without OPN) was added. The system was then incubated in incubator at 37° C. for 24 hours. After that, the cells remaining in the upper chamber was wiped away using a cotton swab, and the cells penetrate through the basement membrane into the lower chamber were washed with PBS, fixed with 1% formaldehyde, and then stained with 0.5% crystal violet. The cells were counted in the field at 200× magnification under a microscope.

Assay [2] deals with MDA-MB-435s cells. Description: Primary breast tumor growth in nude mice (MDA-MB-435s orthotopic). The settings on record: 5 mg/kg, 2 times per week; by the 10th week; P<0.05. Type of assay: in vivo. The procedure:
(§1) The MDA-MB-435s cells were detached and re-suspended in serum-free DMEM to the concentration of 5×10^7 cells/ml. Each group of 10 female 4 to 6-week old nude mice were anaesthetized by injection of sodium pentobarbital (ip.). Under sterile condition, the skin was sterilized, and a small incision (0.5-mm) was made in the skin over the lateral thorax below the right limb. The mammary fat pads (mfp) were exposed and MDA-MB-435s cells (5×10^6 in 100 μl DMEM) were orthotopically injected into the mfps. The cut was then closed. The animals were randomly divided into four groups, and each accepted the treatment as specified below from the day after the tumor cell inoculation:
(§2) 1A12: 5 mg/kg, 2 times per week;
(§3) Control antibody: 5 mg/kg, 2 times per week.
(§4) The tumor formation in nude mice was observed once a week, the maxima of the diameter (length) and a perpendicular dimension of the tumor (width) were measured using a caliper, and the volume was calculated as follows: Volume=0.52×length×width^2. The changed tumor volumes were plotted versus the time into a tumor growth curve.
The tumor size was plotted versus time into a tumor growth curve. […]

A further assay relates to rabbit cornea. Description: OPN-induced rabbit corneal neovascularization. Type of assay: in vivo. Particulars: pellet with 200 ng hOPN and 1 μg antibody. The protocol:
The Hydron powder was dissolved in anhydrous ethanol under sterile condition to the final concentration of 12% (w/v), and dissolved with agitation under 37° C. to formulate the 12% Hydron cast solution, which was then stored at room temperature. A quota of sucralfate powder formulated in sterile Milli Q water under sterile conditions as a suspension with the final concentration of 100 μg/μl, which was stored at 4° C., and vortexed to homogeneous intermediately before use. Sustained-release pellets were prepared to each containing 200 ng hOPN and 50 μg sucralfate and, for the antibody groups, 1 μg anti-OPN antibodies, and for the control, the irrelevant antibody. The 12% Flydron east solution and the hOPN-sucralfate-PBS blend were mixed as the ratio of 1:1 (volume ratio), vortexed for 1 min. Then 5 μl mixed Hydron-sucralfate-hOPN solution was added onto a sterilized Parafilm surface, dried for about 30 min on a super-clean bench for a complete polymerization. The polymers were then shaped into uniform circular granules with a 2 mm diameter using an eye tweezers. The granules were stored at −20′C. Animals were grouped in the same way as in Experiment II-3, each group consisting of four eyes.
The rabbit was anesthetized at ear edge vein with 3% sodium pentobarbital (1 ml/kg body weight) and on both corneal surfaces with 1% tetracaine. The thickness of the cornea was measured using an ultrasonic cornea thickness gauge. A 3 mm half-depth incision was made at the center of the cornea using an ophthalmic knife, and an undermining tunnel toward the 12 o'clock or 3 o'clock position on the corneoscleral margin was made using a 2 mm-wide scleral tunnel knife, whereby the tunnel lied within the corneal layer with the top of the tunnel about 1 mm distant from the limbus corneae. The Hydron/sucralfate sustained-release pellet was implanted into the top of tunnel using micro-tweezers. The cuts were treated with chlortetracycline eye ointment after the surgery. From Day 1 after the surgery, the double-blinded observer observed the rabbit conical neovascularization under the slit-lamp each day, until the Day 10, The length (VL) and the vascular clock angle (CN, 30°=1CN) of the longest vessel were measured, and the area of neovascularization was calculated according to the following formula:
Area (mm^2)=0.2×π×VL (mm)×CN (mm)

The subject of assay [3] is MDA-MB-435s cells. The experiment in a line: Clone formation on soft agar assay. The settings on record: antibody 25 μg/ml every other day; 3 weeks. The assay is classed as cell-based. The protocol:
The assay of clone formation on soft agar was conducted using a double-layer soft agar system. 2.5% melted agar was mixed the DMEM medium pre-warmed at 37° C. to formulate a 0.5% agar solution, which was then diluted with DMEM to a 0.3% agar solution. To each well of a 24-well plate was added 500 μl of a 0.5% agar solution, which was allowed to gel at 4° C., and then kept warm in an incubator at 37°C. The MDA-MB-435s cells were detached using 0.2% .EDTA and suspended in the 0.3% agar solution at the concentration of 5×10^3 cells/ml. 500 μl of the cell suspension was added each well and left to gel. From the second day, the cells were respectively treated with 1A12, c1A12, h1A12 or the irrelevant antibody (23C3D3) (25 μg/ml) every other day. After 3 weeks, the colony formation ability was evaluated by measuring the size of colonies containing more than 10 cells.

Assay [4] relates to MDA-MB-435s cells. The experiment in a line: Spontaneous lung metastasis in nude mice (MDA-MB-435s). The assay is classed as in vivo. Particulars: 5 mg/kg, 2 times per week; histological sections. The protocol:
as §1, §2, §3, §4
The mice were sacrificed by cervical dislocation at the end of the 10th week after inoculation. For each group, tumor tissues were isolated, fixed with 10% neutral formalin and embedded in paraffin, and the tumor tissue and lung tissue were stained with H & E for analysis. […]

Setting [5] is: relative to irrelevant antibody group, P<0,01.

From patent publication US20100151486A1, “OSTEOPONTIN FUNCTIONAL EPITOPES, MONOCLONAL ANTIBODIES AGAINST THE EPITOPES AND USES THEREOF” (SHANGHAI NATIONAL ENGINEERING RESEARCH CENTER OF A, priority 2007, published 2010) come the findings set out here.

Entries after “also recorded” stand apart in the source; their conditions may differ.

B1: 1A12: murine anti-hOPN mAb; VH SEQ ID NO: 4, VL SEQ ID NO: 6; from hybridoma 1A12 (antibody, V domains shown)
VH: QVQLEQSGPELVKPGASVKMSCKSSGYTFTTYVMHWVKQKPGQGLEWIGYINPYNDGSKYNEKFKGKATLTSDKSSNTAYMELSSLTSEDSAVYYCASHYGGSPAYWGQGTLVTVSA
VL: DILMTQTPLSLPVSLGDQASISCRSSQSLVHSNGNTYLHWYLQKPGQSPKLLIYKVSNRFSGVPDRFSGSGSGTDFTLKISRVEAEDLGVYFCSQSTHVPWTFGGGTKLEIKR
modifications: amino acid sequence of the heavy chain variable region in 1A12; amino acid sequence of the light chain variable region in 1A12
notes: murine anti-hOPN mAb; from hybridoma 1A12
For the molecule B1, the “blocking of invasion of the basement membrane by MDA-MB-435s” value in the assay on MDA-MB-435s cells [1] is “effectively block”. In addition, the “tumor size versus irrelevant antibody treated group” value in the assay on MDA-MB-435s cells [2] was “significantly smaller; also recorded: effectively inhibit tumor development”. In the assay on rabbit cornea, the “corneal neovascularization relative to the OPN group” value is listed as “significantly reduced”. Moreover, in the assay on rabbit cornea (setting [5]), the area of neovascularization result is recorded as “significantly shrunk” and the “length of the newly generated blood vessels” value was “significantly reduced”. In addition, the “inhibition of clone size formed by MDA-MB-435s cells on soft agar” value in the assay with MDA-MB-435s cells [3] is on record as “could inhibit the clone size”. For the same molecule, in the assay on MDA-MB-435s cells [4], the “number of the metastasis in lung” value is given as “reduced; also recorded: block tumor metastasis” and the “size of the metastasis in lung” value is on record as “reduced”.
